T1: TNFR1 (Homo sapiens, UniProt P19438)
T1 chain: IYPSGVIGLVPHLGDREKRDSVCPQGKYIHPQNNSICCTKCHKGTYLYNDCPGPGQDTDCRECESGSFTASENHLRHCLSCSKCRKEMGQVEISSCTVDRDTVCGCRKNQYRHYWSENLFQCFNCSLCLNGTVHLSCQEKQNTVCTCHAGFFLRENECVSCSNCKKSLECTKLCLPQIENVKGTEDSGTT


Biological target: T1, TNFR1
Test: yeast display SC50

Row | Binder | apparent Kd (screen) [nM]
1 | K66A (designed binder) MTLQELLREEALRRAEAEAFRYALELLAEKFPEQKEYLLDLAEEIESQIRSLSGVDVEDVRKFLDAEWAWVKELLAEHPAELAEVEAARAARLAELRAEVEAKVAA | 0.49
2 | E29H (designed binder) MTLQELLREEALRRAEAEAFRYALELLAHKFPEQKEYLLDLAEEIESQIRSLSGVDVEDVRKFLDKEWAWVKELLAEHPAELAEVEAARAARLAELRAEVEAKVAA | 0.446
3 | E43L (designed binder) MTLQELLREEALRRAEAEAFRYALELLAEKFPEQKEYLLDLALEIESQIRSLSGVDVEDVRKFLDKEWAWVKELLAEHPAELAEVEAARAARLAELRAEVEAKVAA | 0.869
4 | E16F (designed binder) MTLQELLREEALRRAFAEAFRYALELLAEKFPEQKEYLLDLAEEIESQIRSLSGVDVEDVRKFLDKEWAWVKELLAEHPAELAEVEAARAARLAELRAEVEAKVAA | 1.05
5 | E33P (designed binder) MTLQELLREEALRRAEAEAFRYALELLAEKFPPQKEYLLDLAEEIESQIRSLSGVDVEDVRKFLDKEWAWVKELLAEHPAELAEVEAARAARLAELRAEVEAKVAA | 0.539
6 | A69K (designed binder) MTLQELLREEALRRAEAEAFRYALELLAEKFPEQKEYLLDLAEEIESQIRSLSGVDVEDVRKFLDKEWKWVKELLAEHPAELAEVEAARAARLAELRAEVEAKVAA | 0.593
7 | V60F (designed binder) MTLQELLREEALRRAEAEAFRYALELLAEKFPEQKEYLLDLAEEIESQIRSLSGVDVEDFRKFLDKEWAWVKELLAEHPAELAEVEAARAARLAELRAEVEAKVAA | 0.49
8 | E99R (designed binder) MTLQELLREEALRRAEAEAFRYALELLAEKFPEQKEYLLDLAEEIESQIRSLSGVDVEDVRKFLDKEWAWVKELLAEHPAELAEVEAARAARLAELRARVEAKVAA | 0.446
9 | Q4F (designed binder) MTLFELLREEALRRAEAEAFRYALELLAEKFPEQKEYLLDLAEEIESQIRSLSGVDVEDVRKFLDKEWAWVKELLAEHPAELAEVEAARAARLAELRAEVEAKVAA | 0.49
10 | E67D (designed binder) MTLQELLREEALRRAEAEAFRYALELLAEKFPEQKEYLLDLAEEIESQIRSLSGVDVEDVRKFLDKDWAWVKELLAEHPAELAEVEAARAARLAELRAEVEAKVAA | 4.83
11 | T2Y (designed binder) MYLQELLREEALRRAEAEAFRYALELLAEKFPEQKEYLLDLAEEIESQIRSLSGVDVEDVRKFLDKEWAWVKELLAEHPAELAEVEAARAARLAELRAEVEAKVAA | 0.869
12 | L75S (designed binder) MTLQELLREEALRRAEAEAFRYALELLAEKFPEQKEYLLDLAEEIESQIRSLSGVDVEDVRKFLDKEWAWVKELSAEHPAELAEVEAARAARLAELRAEVEAKVAA | 1.05
13 | R14I (designed binder) MTLQELLREEALRIAEAEAFRYALELLAEKFPEQKEYLLDLAEEIESQIRSLSGVDVEDVRKFLDKEWAWVKELLAEHPAELAEVEAARAARLAELRAEVEAKVAA | 0.539
14 | P79M (designed binder) MTLQELLREEALRRAEAEAFRYALELLAEKFPEQKEYLLDLAEEIESQIRSLSGVDVEDVRKFLDKEWAWVKELLAEHMAELAEVEAARAARLAELRAEVEAKVAA | 0.446
15 | A88T (designed binder) MTLQELLREEALRRAEAEAFRYALELLAEKFPEQKEYLLDLAEEIESQIRSLSGVDVEDVRKFLDKEWAWVKELLAEHPAELAEVEATRAARLAELRAEVEAKVAA | 1.4
16 | E25F (designed binder) MTLQELLREEALRRAEAEAFRYALFLLAEKFPEQKEYLLDLAEEIESQIRSLSGVDVEDVRKFLDKEWAWVKELLAEHPAELAEVEAARAARLAELRAEVEAKVAA | 0.539
17 | R61A (designed binder) MTLQELLREEALRRAEAEAFRYALELLAEKFPEQKEYLLDLAEEIESQIRSLSGVDVEDVAKFLDKEWAWVKELLAEHPAELAEVEAARAARLAELRAEVEAKVAA | 0.869

Row | Binder | apparent Kd (screen) [nM]
18 | K103G (designed binder) MTLQELLREEALRRAEAEAFRYALELLAEKFPEQKEYLLDLAEEIESQIRSLSGVDVEDVRKFLDKEWAWVKELLAEHPAELAEVEAARAARLAELRAEVEAGVAA | 0.49
19 | R8G (designed binder) MTLQELLGEEALRRAEAEAFRYALELLAEKFPEQKEYLLDLAEEIESQIRSLSGVDVEDVRKFLDKEWAWVKELLAEHPAELAEVEAARAARLAELRAEVEAKVAA | 0.593
20 | R92T (designed binder) MTLQELLREEALRRAEAEAFRYALELLAEKFPEQKEYLLDLAEEIESQIRSLSGVDVEDVRKFLDKEWAWVKELLAEHPAELAEVEAARAATLAELRAEVEAKVAA | 0.593
21 | H78K (designed binder) MTLQELLREEALRRAEAEAFRYALELLAEKFPEQKEYLLDLAEEIESQIRSLSGVDVEDVRKFLDKEWAWVKELLAEKPAELAEVEAARAARLAELRAEVEAKVAA | 0.446
22 | R13I (designed binder) MTLQELLREEALIRAEAEAFRYALELLAEKFPEQKEYLLDLAEEIESQIRSLSGVDVEDVRKFLDKEWAWVKELLAEHPAELAEVEAARAARLAELRAEVEAKVAA | 0.368
23 | V85F (designed binder) MTLQELLREEALRRAEAEAFRYALELLAEKFPEQKEYLLDLAEEIESQIRSLSGVDVEDVRKFLDKEWAWVKELLAEHPAELAEFEAARAARLAELRAEVEAKVAA | 0.79
24 | V55D (designed binder) MTLQELLREEALRRAEAEAFRYALELLAEKFPEQKEYLLDLAEEIESQIRSLSGDDVEDVRKFLDKEWAWVKELLAEHPAELAEVEAARAARLAELRAEVEAKVAA | 9.41
25 | E25S (designed binder) MTLQELLREEALRRAEAEAFRYALSLLAEKFPEQKEYLLDLAEEIESQIRSLSGVDVEDVRKFLDKEWAWVKELLAEHPAELAEVEAARAARLAELRAEVEAKVAA | 1.05
26 | L52Y (designed binder) MTLQELLREEALRRAEAEAFRYALELLAEKFPEQKEYLLDLAEEIESQIRSYSGVDVEDVRKFLDKEWAWVKELLAEHPAELAEVEAARAARLAELRAEVEAKVAA | 0.539
27 | L38M (designed binder) MTLQELLREEALRRAEAEAFRYALELLAEKFPEQKEYMLDLAEEIESQIRSLSGVDVEDVRKFLDKEWAWVKELLAEHPAELAEVEAARAARLAELRAEVEAKVAA | 0.539
28 | A69I (designed binder) MTLQELLREEALRRAEAEAFRYALELLAEKFPEQKEYLLDLAEEIESQIRSLSGVDVEDVRKFLDKEWIWVKELLAEHPAELAEVEAARAARLAELRAEVEAKVAA | 0.653
29 | E58T (designed binder) MTLQELLREEALRRAEAEAFRYALELLAEKFPEQKEYLLDLAEEIESQIRSLSGVDVTDVRKFLDKEWAWVKELLAEHPAELAEVEAARAARLAELRAEVEAKVAA | 0.718
30 | E18Q (designed binder) MTLQELLREEALRRAEAQAFRYALELLAEKFPEQKEYLLDLAEEIESQIRSLSGVDVEDVRKFLDKEWAWVKELLAEHPAELAEVEAARAARLAELRAEVEAKVAA | 0.539
31 | V100L (designed binder) MTLQELLREEALRRAEAEAFRYALELLAEKFPEQKEYLLDLAEEIESQIRSLSGVDVEDVRKFLDKEWAWVKELLAEHPAELAEVEAARAARLAELRAELEAKVAA | 0.49
32 | R50L (designed binder) MTLQELLREEALRRAEAEAFRYALELLAEKFPEQKEYLLDLAEEIESQILSLSGVDVEDVRKFLDKEWAWVKELLAEHPAELAEVEAARAARLAELRAEVEAKVAA | 0.869
33 | R61E (designed binder) MTLQELLREEALRRAEAEAFRYALELLAEKFPEQKEYLLDLAEEIESQIRSLSGVDVEDVEKFLDKEWAWVKELLAEHPAELAEVEAARAARLAELRAEVEAKVAA | 2.73
34 | K35V (designed binder) MTLQELLREEALRRAEAEAFRYALELLAEKFPEQVEYLLDLAEEIESQIRSLSGVDVEDVRKFLDKEWAWVKELLAEHPAELAEVEAARAARLAELRAEVEAKVAA | 1.54

Reference: article PMC12416549 (2024)
